First the molecules themselves.
B1: MYOZ1 (parent)
chain: FSDSSMDHFQKFLPTVGGQLGTAG
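Also: lentivirally expressed fusions sorted by FACS into six bins by GFP to DsRed ratio, PSI derived from sequencing read proportions per bin multiplied by bin number.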

Variants of B1 are the subject of this data set. Description: protein stability index of a GFP-peptide fusion (GPS, HEK-293T) (PSI 1-6); higher = more stable. The following applies: c terminus: a fixed tail appended.
As for FSDSSMDHFQKFLPTVWGQLGTAG [G17W], the protein stability index was 2.03.

FSDSSMDHFQKFLPTVMGQLGTAG [G17M]: the protein stability index turned out to be 2.06.

On to FSDSSMDHFQKFLPTVYGQLGTAG [G17Y], for which the protein stability index was determined as 2.26.

As for FSDSSMDHFQKFLPTVNGQLGTAG [G17N], the protein stability index came out at 2.98.

FSDSSMDHFQKFLPTVFGQLGTAG [G17F]: the protein stability index was 1.85.

FSDSSMDHFQKFLPTVSGQLGTAG [G17S]: the protein stability index amounted to 2.26.

With FSDSSMDHFQKFLPTVIGQLGTAG [G17I], the protein stability index was found to be 2.47.

In the case of FSDSSMDHFQKFLPTVQGQLGTAG [G17Q], the protein stability index stood at 2.53.

Regarding FSDSSMDHFQKFLPTVKGQLGTAG [G17K], the protein stability index amounted to 2.02.

Regarding FSDSSMDHFQKFLPTVTGQLGTAG [G17T], the protein stability index is 2.56.

As to FSDSSMDHFQKFLPTVEGQLGTAG [G17E], the protein stability index is 2.98.

As for FSDSSMDHFQKFLPTVRGQLGTAG [G17R], the protein stability index is 1.92.

For FSDSSMDHFQKFLPTVGGQFGTAG [L20F], the protein stability index was determined as 2.25.

With FSDSSMDHFQKFLPTVGGQPGTAG [L20P], the protein stability index is 3.12.

As to FSDSSMDHFQKFLPTVGGQEGTAG [L20E], the protein stability index came to 3.51.

In the case of FSDSSMDHFQKFLPTVGGQQGTAG [L20Q], the protein stability index amounted to 2.66.

As to FSDSSMDHFQKFLPTVGGQIGTAG [L20I], the protein stability index amounted to 2.69.

Regarding FSDSSMDHFQKFLPTVGGQHGTAG [L20H], the protein stability index was 2.79.

As to FSDSSMDHFQKFLPTVGGQDGTAG [L20D], the protein stability index turned out to be 3.24.

Consider FSDSSMDHFQKFLPTVGGQSGTAG [L20S], for which the protein stability index was determined as 3.71.

Take FSDSSMDHFQKFLPTVGGQYGTAG [L20Y]: the protein stability index worked out at 2.27.

With FSDSSMDHFQKFLPTVGGQNGTAG [L20N], the protein stability index worked out at 2.97.

Turning to FSDSSMDHFQKFLPTVGGQMGTAG [L20M], the protein stability index was found to be 2.35.

Take FSDSSMDHFQKFLPTVGGQAGTAG [L20A]: the protein stability index stood at 2.58.

Take FSDSSMDHFQKFLPTVGGQWGTAG [L20W]: the protein stability index was 1.56.

As to FSDSSMDHFQKFLPTVGGQTGTAG [L20T], the protein stability index came to 2.53.

Regarding FSDSSMDHFQKFLPTVGGQCGTAG [L20C], the protein stability index was 1.66.

On to FSDSSMDHFQKFLPTVGGQVGTAG [L20V], for which the protein stability index was found to be 2.25.

FSDSSMDHFQKFLPTVGGQGGTAG [L20G]: the protein stability index turned out to be 3.24.

With FSDSSMDHFQKFLPTVGGQKGTAG [L20K], the protein stability index worked out at 3.1.

On to FSDSSMDHFQKFLPTVGGQRGTAG [L20R], for which the protein stability index is 2.98.

As for FSDSSMDHFQKFTPTVGGQLGTAG [L13T], the protein stability index stood at 3.53.

With FSDSSMDHFQKFRPTVGGQLGTAG [L13R], the protein stability index came to 2.92.

In the case of FSDSSMDHFQKFVPTVGGQLGTAG [L13V], the protein stability index is 2.97.

FSDSSMDHFQKFWPTVGGQLGTAG [L13W]: the protein stability index is 1.82.

For FSDSSMDHFQKFYPTVGGQLGTAG [L13Y], the protein stability index came out at 2.76.

In the case of FSDSSMDHFQKFSPTVGGQLGTAG [L13S], the protein stability index was determined as 2.76.

With FSDSSMDHFQKFLPTVGGFLGTAG [Q19F], the protein stability index came out at 1.42.

Turning to FSDSSMDHFQKFLPTVGGGLGTAG [Q19G], the protein stability index came out at 2.05.

FSDSSMDHFQKFLPTVGGHLGTAG [Q19H]: the protein stability index amounted to 1.74.

With FSDSSMDHFQKFLPTVGGRLGTAG [Q19R], the protein stability index is 3.06.

On to FSDSSMDHFQKFLPTVGGLLGTAG [Q19L], for which the protein stability index is 2.16.

For the variant FSDSSMDHFQKFLPTVGGDLGTAG [Q19D], the protein stability index is 2.58.

FSDSSMDHFQKFLPTVGGTLGTAG [Q19T]: the protein stability index is 2.29.

Regarding FSDSSMDHFQKFLPTVGGVLGTAG [Q19V], the protein stability index is 1.89.

With FSDSSMDHFQKFLPTVGGPLGTAG [Q19P], the protein stability index came to 2.51.

Turning to FSDSSMDHFQKFLPTVGGELGTAG [Q19E], the protein stability index stood at 3.12.

For FSDSSMDHFQKFLPTVGGWLGTAG [Q19W], the protein stability index worked out at 2.35.

Turning to FSDSSMDHFQKFLPTVGGSLGTAG [Q19S], the protein stability index is 2.2.

Take FSDSSMDHFQKFLPTVGGNLGTAG [Q19N]: the protein stability index was 2.08.

Regarding FSDSSMDHFQKFLPTVGGCLGTAG [Q19C], the protein stability index came to 1.96.

Take FSDSSMDHFQKFLPTVGGYLGTAG [Q19Y]: the protein stability index came out at 2.04.

For FSDSSMDHFQKFLPTVGGILGTAG [Q19I], the protein stability index came to 2.01.

Consider FSDSSMDHFQKFLPTVGGMLGTAG [Q19M], for which the protein stability index was determined as 2.03.

As to FSDSSMDHFQKFLPTVGGALGTAG [Q19A], the protein stability index stood at 1.79.

On to FSDSSMDHFQKFLPTVGGKLGTAG [Q19K], for which the protein stability index worked out at 2.33.

Turning to FSDSSMDHFQKFLPTSGGQLGTAG [V16S], the protein stability index was determined as 2.94.

Consider FSDSSMDHFQKFLPTPGGQLGTAG [V16P], for which the protein stability index is 2.56.

In the case of FSDSSMDHFQKFLPTGGGQLGTAG [V16G], the protein stability index was 2.98.

For the variant FSDSSMDHFQKFLPTEGGQLGTAG [V16E], the protein stability index is 4.23.

In the case of FSDSSMDHFQKFLPTNGGQLGTAG [V16N], the protein stability index came to 2.26.

For FSDSSMDHFQKFLPTIGGQLGTAG [V16I], the protein stability index was 2.13.

On to FSDSSMDHFQKFLPTQGGQLGTAG [V16Q], for which the protein stability index stood at 3.19.

For the variant FSDSSMDHFQKFLPTKGGQLGTAG [V16K], the protein stability index amounted to 2.64.

For the variant FSDSSMDHFQKFLPTAGGQLGTAG [V16A], the protein stability index worked out at 3.19.

FSDSSMDHFQKFLPTTGGQLGTAG [V16T]: the protein stability index was 3.09.

FSDSSMDHFQKFLPTFGGQLGTAG [V16F]: the protein stability index is 2.75.

For the variant FSDSSMDHFQKFLPTCGGQLGTAG [V16C], the protein stability index was 2.38.

On to FSDSSMDHFQKFLPTWGGQLGTAG [V16W], for which the protein stability index is 2.44.

Consider FSDSSMDHFQKFLPTMGGQLGTAG [V16M], for which the protein stability index was found to be 2.46.

As to FSDSSMDHFQKFLPTDGGQLGTAG [V16D], the protein stability index turned out to be 2.85.

Regarding FSDSSMDHFQKFLPTLGGQLGTAG [V16L], the protein stability index was determined as 2.28.

On to FSDSSMDHFQKFLPTYGGQLGTAG [V16Y], for which the protein stability index came to 1.92.

In the case of FSDSSMDHFQKFLPTRGGQLGTAG [V16R], the protein stability index was determined as 2.46.

On to FSDSSMDHFQKFLPTHGGQLGTAG [V16H], for which the protein stability index is 2.75.

Regarding FSDSSMDHFQKFLPTVGHQLGTAG [G18H], the protein stability index came to 2.04.

FSDSSMDHFQKFLPTVGCQLGTAG [G18C]: the protein stability index was 2.04.

Take FSDSSMDHFQKFLPTVGPQLGTAG [G18P]: the protein stability index was determined as 2.43.

Consider FSDSSMDHFQKFLPTVGKQLGTAG [G18K], for which the protein stability index came to 2.

As to FSDSSMDHFQKFLPTVGWQLGTAG [G18W], the protein stability index stood at 1.85.

Turning to FSDSSMDHFQKFLPTVGFQLGTAG [G18F], the protein stability index was 1.51.

Regarding FSDSSMDHFQKFLPTVGIQLGTAG [G18I], the protein stability index came out at 1.52.

On to FSDSSMDHFQKFLPTVGSQLGTAG [G18S], for which the protein stability index came to 2.48.

As to FSDSSMDHFQKFLPTVGTQLGTAG [G18T], the protein stability index stood at 2.55.

Turning to FSDSSMDHFQKFLPTVGLQLGTAG [G18L], the protein stability index amounted to 2.3.

Regarding FSDSSMDHFQKFLPTVGYQLGTAG [G18Y], the protein stability index is 1.64.

As to FSDSSMDHFQKFLPTVGRQLGTAG [G18R], the protein stability index turned out to be 2.79.

Regarding FSDSSMDHFQKFLPTVGMQLGTAG [G18M], the protein stability index came out at 2.49.

With FSDSSMDHFQKFLPTVGAQLGTAG [G18A], the protein stability index was 1.92.

Take FSDSSMDHFQKFLPTVGEQLGTAG [G18E]: the protein stability index amounted to 3.48.

For the variant FSDSSMDHFQKFLPTVGDQLGTAG [G18D], the protein stability index came to 3.05.

For the variant FSDSSMDHFQKFLPTVGNQLGTAG [G18N], the protein stability index stood at 2.67.

As to FSDSSMDHFQKFLPTVGVQLGTAG [G18V], the protein stability index was 1.94.

Consider FSDSSMDHFQKFLPTVGQQLGTAG [G18Q], for which the protein stability index is 2.63.

Values taken from the supplement of paper PMC10567573.
